Blank lines part the entries; values can stand above or below the binder they belong to.
What was measured:
[1] = biological target: T1, His-TLR4-TIR (cytoplasmic TIR domain of mouse TLR4, amino acids 670-835) (mouse, UniProt Q9QUK6 670-835); assay: other fluorescence titration; BODIPY FL-labelled SCIMP-T1 titrated with unlabelled TLR4-TIR; 25 °C, 30 mM Tris pH 7.4, 150 mM NaCl, 1 mM dithiothreitol; curve fit (Grafit); conditions: both partners purified
T1 construct: TLR4, mouse, cytoplasmic TIR domain, amino acids 670-835; codon-optimized gene from Genscript; subcloned into pET28a; also called His-tagged TLR4-TIR domain; recombinant TLR4-TIR; source: E. coli, purified (Ni-NTA)
T1 sequence (looked up): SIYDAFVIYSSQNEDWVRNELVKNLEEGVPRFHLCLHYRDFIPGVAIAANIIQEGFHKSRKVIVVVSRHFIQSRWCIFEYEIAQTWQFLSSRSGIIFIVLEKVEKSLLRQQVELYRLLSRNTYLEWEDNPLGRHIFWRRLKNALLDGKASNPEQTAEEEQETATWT

[2] = biological target: T1, His-TLR4-TIR (cytoplasmic TIR domain of …); assay: pull-down; GST-SCIMP (T1, T2 or T1 mutants) as bait, recombinant His-TLR4-TIR as prey; immunoblot against the His tag; conditions: both partners purified

- Kd [1]: 212 nM
B1: fluorescently labelled recombinant SCIMP-T1 (BODIPY FL) (domain or fragment)
chain: not shown
modifications: labelled with BODIPY FL Iodoacetamide
notes: SCIMP, mouse, T1, amino acids 29-150; also called labelled SCIMP; fluorescently labelled SCIMP-T1; source: E. coli, purified

- binding result [2]: binds
B2: GST-SCIMP-T1 Y96F (domain or fragment)
chain: not shown
notes: SCIMP, mouse, T1, amino acids 29-150, Y96F; also called (unphosphorylated) Y96F SCIMP mutant; source: E. coli, purified (glutathione-Sepharose beads)

- binding result [2]: binds
B3: GST-SCIMP-T1 (entire intracellular region of murine SCIMP, amino acids 29-150) (domain or fragment)
chain: not shown
notes: subcloned into pGEX6p-1; also called SCIMP-GST; source: E. coli, purified (glutathione-Sepharose beads)

- binding result [2]: binds
B4: GST-SCIMP-T2 (C terminal region of murine SCIMP, amino acids 93-150) (domain or fragment)
chain: not shown
notes: SCIMP, mouse, C terminal region, amino acids 93-150; lacks the PRD; subcloned into pGEX6p-1; source: E. coli, purified (glutathione-Sepharose beads)
